US20050037969A1 (ARBOR VITA, published 2005)
Ends that are not written are not given here. * marks the point of attachment. Biotin = O=C1N[C@H]2[C@H](CS[C@H]2CCCCC(=O)*)N1

Assays:
Experiment in all cases: A/G assays
[1] = target: T1, GST-CASK PDZ domain fusion protein (Homo sapiens, UniProt O14936 486-575)
T1 construct: also called Homo sapiens CASK protein
T1 sequence: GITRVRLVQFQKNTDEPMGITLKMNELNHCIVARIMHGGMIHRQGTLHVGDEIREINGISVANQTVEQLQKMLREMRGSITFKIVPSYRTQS

[2] = target: T2, GST-PTN-4 PDZ domain fusion protein (Homo sapiens (Human), UniProt P29074 517-605)
T2 construct: also called protein-tyrosine phosphatase meg1; not shown: glutathione S-transferase encoded by vector pGEX-3X (Pharmacia)
T2 sequence: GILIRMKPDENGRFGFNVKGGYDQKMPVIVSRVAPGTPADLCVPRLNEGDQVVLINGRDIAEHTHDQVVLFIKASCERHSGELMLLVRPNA

[3] = target: T3, GST-prIL16 fusion protein (PDZ domains 1-2) (Homo sapiens (Human), UniProt Q14005 1111-1324)
T3 construct: also called putative interleukin 16 precursor; not shown: glutathione S-transferase encoded by vector pGEX-3X (Pharmacia)
T3 sequence: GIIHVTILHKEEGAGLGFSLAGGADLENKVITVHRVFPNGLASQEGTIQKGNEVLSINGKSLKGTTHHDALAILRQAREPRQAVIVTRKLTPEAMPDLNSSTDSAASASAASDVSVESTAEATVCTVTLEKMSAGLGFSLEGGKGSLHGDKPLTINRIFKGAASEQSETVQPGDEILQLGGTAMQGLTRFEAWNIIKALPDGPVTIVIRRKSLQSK

[4] = target: T4, GST-cytohesin binding protein PDZ domain fusion protein (Homo sapiens (Human), UniProt O60759 74-165)
T4 construct: also called CBP; not shown: glutathione S-transferase encoded by vector pGEX-3X (Pharmacia)
T4 sequence: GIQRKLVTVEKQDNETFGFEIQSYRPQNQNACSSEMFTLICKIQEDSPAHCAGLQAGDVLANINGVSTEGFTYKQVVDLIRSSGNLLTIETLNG

[5] = target: T5, GST-RGS12 PDZ domain fusion protein (human, UniProt O14924 17-85)
T5 construct: also called human regulator of G-protein signalling 12; not shown: glutathione S-transferase encoded by vector pGEX-3X (Pharmacia)
T5 sequence: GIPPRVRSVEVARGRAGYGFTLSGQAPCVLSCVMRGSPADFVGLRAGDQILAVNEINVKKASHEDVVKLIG

[6] = target: T6, GST-DLG5 (p-dlg) PDZ domain fusion protein (Human, UniProt Q8TDM6 1343-1583)
T6 construct: also called Human discs large protein p-dlg; not shown: glutathione S-transferase encoded by vector pGEX-3X (Pharmacia)
T6 sequence: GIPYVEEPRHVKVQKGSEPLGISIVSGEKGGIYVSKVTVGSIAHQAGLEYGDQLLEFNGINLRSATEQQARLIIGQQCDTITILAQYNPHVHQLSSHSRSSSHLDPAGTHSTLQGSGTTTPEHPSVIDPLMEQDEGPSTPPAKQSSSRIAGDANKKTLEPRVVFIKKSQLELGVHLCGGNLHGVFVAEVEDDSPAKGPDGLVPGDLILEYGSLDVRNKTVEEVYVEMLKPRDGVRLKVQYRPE

[7] = target: T7, GST-TIAM1 PDZ domain fusion protein (Homo sapiens (Human), UniProt Q13009 845-931)
T7 construct: also called TLAM1; T-lymphoma invasion and metastasis inducing protein 1; not shown: glutathione S-transferase encoded by vector pGEX-3X (Pharmacia)

[8] = target: T8, GST-DVL1 PDZ domain fusion protein (human, UniProt O14640 247-339)
T8 construct: also called human dishevelled segment polarity protein homolog; not shown: glutathione S-transferase encoded by vector pGEX-3X (Pharmacia)
T8 sequence: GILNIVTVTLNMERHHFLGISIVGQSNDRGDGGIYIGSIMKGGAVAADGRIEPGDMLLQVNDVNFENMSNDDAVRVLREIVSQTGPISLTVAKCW

[9] = target: T9, GST-KIAA0303 PDZ domain fusion protein (Homo sapiens (Human), UniProt O15021 1138-1228)
T9 construct: also called K303; not shown: glutathione S-transferase encoded by vector pGEX-3X (Pharmacia)
T9 sequence: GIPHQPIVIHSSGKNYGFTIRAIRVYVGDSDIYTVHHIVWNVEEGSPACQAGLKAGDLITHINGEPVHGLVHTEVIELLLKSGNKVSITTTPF

[10] = target: T10, KIAA0807 (PDZ domain)-GST fusion protein (human, UniProt Q6P0Q8 1104-1192)
T10 construct: also called K807; KIAA807; not shown: glutathione S-transferase encoded by vector pGEX-3X (Pharmacia)
T10 sequence: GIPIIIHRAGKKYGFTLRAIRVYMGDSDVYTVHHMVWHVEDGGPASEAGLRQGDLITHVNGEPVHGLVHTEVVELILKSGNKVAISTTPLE

[11] = target: T11, TAX-IP2L PDZ-GST fusion protein (Homo sapiens (Human), UniProt Q8TF64 107-197)
T11 construct: Order of GST and PDZ part and limits not seen in the excerpts
T11 sequence: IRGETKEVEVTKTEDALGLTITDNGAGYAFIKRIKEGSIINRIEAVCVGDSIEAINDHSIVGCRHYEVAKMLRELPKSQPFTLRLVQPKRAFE

[12] = target: T12, MINT3 PDZ-GST fusion protein
T12 construct: Order of GST and PDZ part and limits not seen in the excerpts
T12 chain: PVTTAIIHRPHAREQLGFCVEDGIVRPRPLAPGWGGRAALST

[13] = target: T13, ConEn PDZ-GST fusion protein (Homo sapiens (Human), UniProt Q969H4 193-287)
T13 construct: The label ConEn is not explained in the excerpts
T13 sequence: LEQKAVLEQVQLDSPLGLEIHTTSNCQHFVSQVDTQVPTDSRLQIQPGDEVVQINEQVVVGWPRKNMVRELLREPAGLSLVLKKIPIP

[14] = target: T14, GEF PDZ-GST fusion protein (Homo sapiens (Human), UniProt Q8TEU7 293-400)
T14 construct: The label GEF is not explained in the excerpts
T14 sequence: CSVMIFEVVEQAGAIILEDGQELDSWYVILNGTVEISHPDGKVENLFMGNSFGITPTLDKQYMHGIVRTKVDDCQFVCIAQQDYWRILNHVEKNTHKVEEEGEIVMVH

[15] = target: T15, NOS1 PDZ-GST fusion protein (Homo sapiens (Human), UniProt P29475 11-100)
T15 construct: Order of GST and PDZ part and limits not seen in the excerpts

Measured: binding result

T15 sequence (P29475 11-100 limits assumed): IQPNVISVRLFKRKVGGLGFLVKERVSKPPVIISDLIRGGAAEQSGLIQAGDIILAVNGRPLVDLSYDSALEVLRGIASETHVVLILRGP
T7 sequence (Q13009 other isoform, or with tags, fused parts or gaps): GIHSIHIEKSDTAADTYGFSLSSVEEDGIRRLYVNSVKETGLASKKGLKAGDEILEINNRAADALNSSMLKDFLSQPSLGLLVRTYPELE

Biotin-ENLAPVTTFGKTNGYIA (also called CD148 (DEP-1)) [CD148 C-terminal peptide AA19L, biotinylated]
no binding: all assays above

B1: CD62E C-terminal peptide AA48L (peptide)
peptide: Biotin-SSSQSLESDGSYQKPSYIL
notes: Only the last four residues are seen in the excerpts
no binding: all assays above

Biotin-SSKSKSSEESQTFFGLYKL (not fully specified, also called FasLigand; Fas ligand) [FasL C-terminal peptide AA23L-M, biotinylated]
no binding: all assays above

Biotin-ISKATPALPTVSISSSAEV (also called AA1L-R) [Clasp-1 C-terminal peptide AA1L, biotinylated]
no binding: all assays above

B2: Mannose receptor C-terminal peptide AA31L (peptide)
peptide: Biotin-GTSDMKDLVGNIEQNEHSVI
notes: as for B1
no binding: all assays above

Biotin-CAISGTSSDRGYGSPRYAEV (also called AA3L-V) [Clasp-4 C-terminal peptide AA3L, biotinylated]
no binding: all assays above

B3: CD114 (G-CSFR) C-terminal peptide AA27L (peptide)
peptide: Biotin-LNFPLLQGIRVHGMEALGSF
notes: as for B1
no binding: all assays above

B4: CC CKR-3 C-terminal peptide AA43L (peptide)
peptide: Biotin-LERTSSVSPSTAEPELSIVF
notes: as for B1
no binding: all assays above
